Experimental data taken from article PMC4218801.

Molecular target: T1, Crp (Mycobacterium smegmatis mc2155) (UniProt A0R5H1)
T1 sequence: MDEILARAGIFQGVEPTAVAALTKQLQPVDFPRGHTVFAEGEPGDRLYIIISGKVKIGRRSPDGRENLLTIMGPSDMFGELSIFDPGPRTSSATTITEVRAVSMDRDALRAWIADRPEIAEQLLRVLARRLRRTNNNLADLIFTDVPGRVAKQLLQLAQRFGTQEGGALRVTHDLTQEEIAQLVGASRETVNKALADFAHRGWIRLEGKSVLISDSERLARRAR
Experiment: EMSA
Conditions: Invitrogen EMSA kit binding buffer, 100 fmol (9.3 ng) DNA, 100 uM cAMP, 20 min at room temperature; 8% native PAGE in 0.5x TBE pH 8.3 at 4 C, SYBR green stain

Sequence: GGCAGACCGCATCCGCGGCGCGTTCGGTCGCCGCGTCCCGCGCGCGGGAGATCCGTGCGTTTCGGGATGTGATGCCCGTCGCACGACGTGAGCGGCGGTGTGGAGAATCACGGCTCAGCAAAGTTGCATTTGTAAGAGGGCGCGACCAGA (double strand) [ahpC 150-bp wild-type IR1]
- binding: binds
